{"source": "paper PMC4977486", "about": "“A/T Run Geometry of B-form DNA Is Independent of Bound Methyl-CpG Binding Domain, Cytosine Methylation and Flanking Sequence”", "binders": {"B1": {"name": "methylated BDNFProIII 20-mer (dsDNA)", "DNA 1": "TCTGGAACGGAATTCTTCTA", "DNA 2": "ATAGAAGAATTCCGTTCCAG", "modifications": "5-methylcytosine at position 8 of strand 1 and position 13 of strand 2 (C33 in duplex numbering)"}}, "key": {"[1]": {"target": "MeCP2 MBD wild type (UniProt P51608 78-163)", "experiment": "EMSA; 2, 4, 8 uM protein; 1.8 uM DNA; 1.8 uM poly(dG-dC) competitor; reference; EMSA: 100 mM Tris-HCl pH 7.5, 500 mM KCl, 10 mM DTT, 1.8 uM poly(dG-dC), room temperature 30 min; 8% native PAGE in Tris-glycine pH 8.3 at 277 K", "conditions": "protein: recombinant; 5' overhang 1 nt on each strand (T and A), 19 bp"}, "[2]": {"target": "MeCP2 MBD-TRD wild type (UniProt P51608 78-310)", "experiment": "EMSA; 2, 4, 8 uM protein; 1.8 uM DNA; 1.8 uM poly(dG-dC) competitor; reference; EMSA: 100 mM Tris-HCl pH 7.5, 500 mM KCl, 10 mM DTT, 1.8 uM poly(dG-dC), room temperature 30 min; 8% native PAGE in Tris-glycine pH 8.3 at 277 K", "conditions": "protein: recombinant; 5' overhang 1 nt on each strand (T and A), 19 bp"}}, "data": [{"binder": "B1", "values": [{"measurement": "binding signal", "setting": "[1]", "result": "100 % of wild-type MBD complex"}, {"measurement": "binding signal", "setting": "[2]", "result": "100 % of wild-type MBD-TRD complex"}]}]}
